Test results from PMC8945615.

Target: soluble human fibrin (human) (UniProt P02679)
Test: SPR

Chain of UniProt P02679 (P02679 whole entry, looked up, tested part not stated): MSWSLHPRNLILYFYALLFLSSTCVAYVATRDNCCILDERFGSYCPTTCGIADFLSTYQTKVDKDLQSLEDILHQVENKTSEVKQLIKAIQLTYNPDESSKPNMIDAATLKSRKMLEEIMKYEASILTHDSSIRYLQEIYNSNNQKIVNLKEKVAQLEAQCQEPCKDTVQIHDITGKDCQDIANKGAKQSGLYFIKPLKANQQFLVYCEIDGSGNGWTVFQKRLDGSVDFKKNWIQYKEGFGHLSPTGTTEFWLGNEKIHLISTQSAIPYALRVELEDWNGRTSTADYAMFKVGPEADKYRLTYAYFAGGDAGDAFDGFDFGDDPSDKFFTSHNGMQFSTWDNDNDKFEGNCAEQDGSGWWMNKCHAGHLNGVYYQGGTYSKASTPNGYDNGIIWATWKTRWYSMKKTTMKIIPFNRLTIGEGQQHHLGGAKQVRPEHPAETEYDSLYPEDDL

KD2 (heterogeneous ligand model): 3.79e-07
KD2 (heterogeneous ligand model, primed with PT25-2): 1.37e-07
Kd1 (heterogeneous ligand model): 1.47e-07
Kd1 (heterogeneous ligand model, primed with PT25-2): 4.78e-08
fold increase of ka1 on priming with PT25-2 (against unprimed αIIbβ3): 3 fold
ka1 (heterogeneous ligand model): 13400
kd1 (heterogeneous ligand model): 0.00196
Substance: full-length, purified αIIbβ3 (from UniProt P08514 32-1039; P05106 27-788) (receptor)
